The text below walks through data of article PMC6738647, “A nanobody targeting the translocated intimin receptor inhibits the attachment of enterohemorrhagic E. coli to human colonic mucosa” (PLoS Pathogens, 2019).

The target of test [1] is T1, Tir TirM (Escherichia coli, UniProt P0DJ92).
T1 chain: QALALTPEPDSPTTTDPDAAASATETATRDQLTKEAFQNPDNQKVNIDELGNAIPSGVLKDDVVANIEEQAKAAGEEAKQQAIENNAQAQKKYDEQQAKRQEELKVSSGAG
Put plainly: SPR. A general note: SPR reads the build-up and loss of mass on a sensor chip optically.

Test [2] addresses T2, Int280 of EHEC (C-terminal receptor-binding domain of intimin), His-tagged (enterohemorrhagic E. coli (EHEC) O157:H7, UniProt P43261 655-934).
T2 construct: also called Int280_(EHEC)
T2 sequence: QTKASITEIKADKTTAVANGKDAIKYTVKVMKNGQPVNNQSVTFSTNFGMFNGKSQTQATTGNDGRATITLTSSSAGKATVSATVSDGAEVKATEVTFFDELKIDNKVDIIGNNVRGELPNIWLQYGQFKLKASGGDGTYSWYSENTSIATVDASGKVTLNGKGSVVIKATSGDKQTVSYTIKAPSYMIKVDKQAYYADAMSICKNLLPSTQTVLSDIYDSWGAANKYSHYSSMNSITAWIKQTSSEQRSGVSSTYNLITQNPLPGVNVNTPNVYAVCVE
Put plainly: SPR; BiaCore3000; biotinylated TirM_(EHEC) immobilised on a Streptavidin SA chip at 150 RU; Int280 as analyte at 30 ul/min in HEPES-buffer; 1:1 Langmuir model; KD from koff/kon. The note with it: both partners purified.

B1: Intimin Int280 Int280 (protein)
chain: T2 sequence
Broadly, the Kd is a measure of binding affinity in units of concentration. In the case of B1, the Kd in test [1] was ~0.04 µM.

B2: Biotinylated TirM of EHEC, His-tagged (domain or fragment)
chain: T1 chain
modifications: biotin (Biotinamidocaproate N-hydroxysuccinimide ester)
notes: also called biotinylated TirM_(EHEC)
By koff is commonly meant the first-order rate constant of dissociation. Higher therefore signals fast dissociation. One may read the kon as the rate constant with which the complex forms. With B2, in test [2], binding was characterised by a dissociation constant (Kd) of 0.0481 µM, the koff came out at 0.0375 s⁻¹ and the kon was found to be 785000 M⁻¹ s⁻¹.
